# Experimental data as given in patent CN108997499A (BEIJING CHEST HOSPITAL CAPITAL MEDICAL UNIV; BEIJING …, dated 2018).
# Molecular target: T1, PD-L1-his蛋白 (人PD-L1胞外区, his标签) (human, UniProt Q9NZQ7 19-238)
# T1 construct: extracellular domain; also called PD-L1蛋白; PD-L1-his蛋白标准品; not shown: his tag
# Test: sandwich ELISA, PD-L1 antibody as capture, biotinylated antibody X as detection, HRP-Streptavidin
# T1 sequence (Q9NZQ7 19-238): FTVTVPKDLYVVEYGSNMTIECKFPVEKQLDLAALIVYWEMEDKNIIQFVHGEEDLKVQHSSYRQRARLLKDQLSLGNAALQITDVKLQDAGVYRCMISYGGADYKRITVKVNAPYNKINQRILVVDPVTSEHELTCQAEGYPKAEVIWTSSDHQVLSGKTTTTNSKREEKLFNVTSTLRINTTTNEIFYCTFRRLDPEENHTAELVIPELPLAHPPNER
binder,measurement,value
"抗体X (非封阻型抗PD-L1抗体) (antibody, V domains shown, Used biotin-labelled as the detection antibody; also called PD-L1抗体X; 第二抗体) VH: QVQLQQSGTELMKPGASVKISCKATGYTFSNYWIEWVKQRPGHGLEWIGEILPGSGNTNYNENFKGKATFTADTSSNTAYMQLSRLTSEDSAVYYCARERASTSWGQGTLVTVSA VL: DIQMTQTTSSLSASLGDRVTITCSASQGISNYLNWYQQNPDGTVKLLIYYTSHLHSGVSSRFSGSGSGTDYSLTISNLEPEDIATYYCQQYVKLPWTFGGGTKLEIK",binding result,binds
